Results reported in patent US20190375815A1 (Novartis, published 2019).

Target: T1, CD22-Fc (UniProt P20273 20-687, limits assumed)
T1 construct: Soluble staining reagent, detected with an anti-Fc secondary antibody; not shown: Fc part
T1 sequence (looked up): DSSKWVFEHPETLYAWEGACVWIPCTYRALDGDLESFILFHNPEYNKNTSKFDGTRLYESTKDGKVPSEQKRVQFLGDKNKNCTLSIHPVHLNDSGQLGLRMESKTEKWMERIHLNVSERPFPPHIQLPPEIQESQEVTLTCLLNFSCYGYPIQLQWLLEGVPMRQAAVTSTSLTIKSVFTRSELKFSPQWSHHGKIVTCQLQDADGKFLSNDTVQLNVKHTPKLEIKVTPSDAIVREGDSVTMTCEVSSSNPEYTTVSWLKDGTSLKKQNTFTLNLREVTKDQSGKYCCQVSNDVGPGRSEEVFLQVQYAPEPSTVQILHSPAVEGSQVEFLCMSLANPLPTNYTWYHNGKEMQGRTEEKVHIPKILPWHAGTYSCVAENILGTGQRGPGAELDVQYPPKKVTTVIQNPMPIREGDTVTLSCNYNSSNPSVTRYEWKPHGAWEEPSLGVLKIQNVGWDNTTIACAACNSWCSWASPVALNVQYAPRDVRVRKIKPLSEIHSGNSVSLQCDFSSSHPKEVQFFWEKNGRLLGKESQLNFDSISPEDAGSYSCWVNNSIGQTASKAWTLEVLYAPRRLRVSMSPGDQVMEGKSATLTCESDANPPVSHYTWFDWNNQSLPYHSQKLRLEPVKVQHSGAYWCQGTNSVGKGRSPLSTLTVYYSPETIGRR
Assay: flow cytometry of transduced JNL cells stained with CD22-Fc and anti-Fc secondary antibody
Excerpt: The Jurkat NFAT Luciferase (JNL) reporter cell line is based on the acute T cell leukemia line Jurkat. The line was modified to express luciferase under control of the Nuclear Factor of Activated T cells (NFAT) response element. For the transduction with TCARs, 400,000 JNL cells/well of a 12-well plate were transduced with a multiplicity of infection (MOI) of 1.5. Frozen virus-containing supernatant was thawed at room temperature and added to the respective wells. One well each was transduced with CD19-TCAR, CD22-TCAR, or CD19-TCAR plus CD22-TCAR (“CD19/22 dual TCAR”) at MOI=1.5 each. The plates were cultured for 6 days.
TCAR-expressing T cells were tested for their target binding capability by flow cytometry. Non-transduced (UTD), CD19-TCAR, CD22-TCAR and CD19/22 dual TCAR expressing JNL cells were tested: cells were stained with CD22-Fc for 30 min at 4° C. After a wash, cells were stained with anti-Fc secondary antibody for 30 min at 4° C. After a second wash, cells were stained with CD19-CAR anti-idiotype antibody (Ab) for 30 min at 4° C. Cells were then analyzed on a FACS LSR Fortessa after a last wash. Data was analyzed using FlowJo software. […] CD22-TCAR expressing cells bound CD22-Fc but were not stained with the CD19-CAR anti-idiotype Ab (FIG. 47C).

B1: CD19scFv-G4S-CD3gECDTM-41BB (other)
chain: EIVMTQSPATLSLSPGERATLSCRASQDISKYLNWYQQKPGQAPRLLIYHTSRLHSGIPARFSGSGSGTDYTLTISSLQPEDFAVYFCQQGNTLPYTFGQGTKLEIKGGGGSGGGGSGGGGSQVQLQESGPGLVKPSETLSLTCTVSGVSLPDYGVSWIRQPPGKGLEWIGVIWGSETTYYSSSLKSRVTISKDNSKNQVSLKLSSVTAADTAVYYCAKHYYYGGSYAMDYWGQGTLVTVSSGGGGSQSIKGNHLVKVYDYQEDGSVLLTCDAEAKNITWFKDGKMIGFLTEDKKKWNLGSNAKDPRGMYQCKGSQNKSKPLQVYYRMCQNCIELNAATISGFLFAEIVSIFVLAVGVYFIAKRGRKKLLYIFKQPFMRPVQTTQEEDGCSCRFPEEEEGGCEL
notes: Chimeric membrane protein: CD19 scFv, G4S linker, CD3 gamma extracellular and transmembrane domains, 4-1BB; Expressed on JNL (Jurkat NFAT luciferase) cells by lentiviral transduction, alone or together with the CD22 TCAR (CD19/22 dual TCAR cells); also called CD19-TCAR; CD19 TCAR
B1: no binding.
